T1: GIP receptor
T1 sequence (P48546 whole entry, species assumed, looked up): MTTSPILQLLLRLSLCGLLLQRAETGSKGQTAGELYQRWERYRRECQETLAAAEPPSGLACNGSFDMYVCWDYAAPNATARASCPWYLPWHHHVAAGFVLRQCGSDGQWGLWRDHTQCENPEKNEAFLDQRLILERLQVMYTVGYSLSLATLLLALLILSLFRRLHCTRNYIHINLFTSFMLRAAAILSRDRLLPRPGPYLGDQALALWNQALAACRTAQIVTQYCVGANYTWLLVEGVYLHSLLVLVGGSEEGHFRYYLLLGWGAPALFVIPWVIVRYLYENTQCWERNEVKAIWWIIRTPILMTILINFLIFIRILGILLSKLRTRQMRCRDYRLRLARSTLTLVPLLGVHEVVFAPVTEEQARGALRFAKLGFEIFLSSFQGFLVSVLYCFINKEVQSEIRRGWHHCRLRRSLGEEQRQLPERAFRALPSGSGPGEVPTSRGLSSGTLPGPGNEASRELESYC

B1: BGM125 (peptide)
peptide: YXEGTFTSDYSIXLDKIAQKAFVQWLIAGGPSSGAPPPS
modifications: Aib at positions 2 and 13; by the synthesis order the Lys(Alloc) at position 16 carries AEEEA-AEEEA-gamma-Glu-icosanedioic acid on its side chain; C-terminal amide (Rink MBHA Amide resin)
B2: BG128 (peptide)
peptide: YXEGTFTSDYSIXLDKIAQKAFVQWLIAGGPSSGAPPPSK
modifications: Aib (2-aminoisobutyric acid) at positions 2 and 13; Lys at position 40 carries on its side chain AEEEA-AEEEA-gamma-Glu-icosanedioic acid (Fmoc-AEEEA-OH, Fmoc-AEEEA-OH, Fmoc-Glu-OtBu and 20-(tert-butoxy)-20-oxoicosanoic acid condensed in turn); C-terminal amide (made on Rink MBHA Amide resin)

Legend:
GIP receptor = biological target: T1, GIP receptor; assay: cell-based or functional assay
GLP-1 receptor = assay: cell-based or functional assay

Row | Binder | cAMP experimental result of GIP receptor, EC50 (GIP receptor) [pM] | cAMP experimental result of GLP-1 receptor, EC50 (GLP-1 receptor) [pM]
1 | B1 | 684 | 69.2
2 | B2 | 278 | 110

From patent US12215133 (BRIGHTGENE BIO MEDICAL TECHNOLOGY, dated 2025)
